According to US20150147336A1:

What was measured:
IFNα2a (human) = IFNα2a (human) (UniProt P01563); assay: cell-based or functional assay
human leukocyte IFN = assay: cell-based or functional assay

## MEDI-545 (antibody)
IFNα2a (human)
  HERC5 gene expression (TAQMAN, Average) in whole blood of donor 107 with 100 IU IFNα2a + MEDI-545; same donor VEH 1.00, IFN alone 41.12 (relative expression (Average)): 6.29
  HERC5 gene expression (TAQMAN, Average) in whole blood of donor 163 with 100 IU IFNα2a + MEDI-545; same donor VEH 1.05, IFN alone 75.81 (relative expression (Average)): 7.83
  HERC5 gene expression (TAQMAN, Average) in whole blood of donor 175 with 100 IU IFNα2a + MEDI-545; same donor VEH 1.19, IFN alone 74.58 (relative expression (Average)): 6.89
  IFN α2a-induced IFIT1 gene expression in whole blood (TAQMAN), sample 107 IFN + 545 (107 IFN 80.21; 107 VEH 1.00) (relative expression (Average)): 13.1
  IFN α2a-induced IFIT1 gene expression in whole blood (TAQMAN), sample 163 IFN + 545 (163 IFN 51.65; 163 VEH 0.92) (relative expression (Average)): 7.6
  IFN α2a-induced IFIT1 gene expression in whole blood (TAQMAN), sample 175 IFN + 545 (175 IFN 82.98; 175 VEH 1.47) (relative expression (Average)): 8.4
  IFN α2a-induced IFIT3 gene expression in whole blood (TAQMAN), sample 107 IFN + 545 (107 IFN 38.43; 107 VEH 1.00) (relative expression (Average)): 6.78
  IFN α2a-induced IFIT3 gene expression in whole blood (TAQMAN), sample 163 IFN + 545 (163 IFN 25.94; 163 VEH 0.62) (relative expression (Average)): 4.58
  IFN α2a-induced IFIT3 gene expression in whole blood (TAQMAN), sample 175 IFN + 545 (175 IFN 35.02; 175 VEH 1.32) (relative expression (Average)): 5.28
  IFN α2a-induced IL6ST gene expression in whole blood (TAQMAN), sample 107 IFN + 545 (107 IFN 3.54; 107 VEH 1.00) (relative expression (Average)): 2.62
  IFN α2a-induced IL6ST gene expression in whole blood (TAQMAN), sample 163 IFN + 545 (163 IFN 7.69; 163 VEH 2.50) (relative expression (Average)): 4.18
  IFN α2a-induced IL6ST gene expression in whole blood (TAQMAN), sample 175 IFN + 545 (175 IFN 7.62; 175 VEH 1.37) (relative expression (Average)): 2.95
  IFN α2a-induced IRF7 gene expression in whole blood (TAQMAN), sample 107 IFN + 545 (107 IFN 18.53; 107 VEH 1.00) (relative expression (Average)): 3.42
  IFN α2a-induced IRF7 gene expression in whole blood (TAQMAN), sample 163 IFN + 545 (163 IFN 17.16; 163 VEH 0.91) (relative expression (Average)): 2.92
  IFN α2a-induced IRF7 gene expression in whole blood (TAQMAN), sample 175 IFN + 545 (175 IFN 24.65; 175 VEH 1.25) (relative expression (Average)): 2.43
  IFN α2a-induced LY6E gene expression in whole blood (TAQMAN), sample 107 IFN + 545 (107 IFN 19.09; 107 VEH 1.00) (relative expression (Average)): 3.5
  IFN α2a-induced LY6E gene expression in whole blood (TAQMAN), sample 163 IFN + 545 (163 IFN 13.52; 163 VEH 1.02) (relative expression (Average)): 4.8
  IFN α2a-induced LY6E gene expression in whole blood (TAQMAN), sample 175 IFN + 545 (175 IFN 19.32; 175 VEH 1.61) (relative expression (Average)): 3.74
  IFN α2a-induced MARCKS gene expression in whole blood (TAQMAN), sample 163 IFN + 545 (163 IFN 2.59; 163 VEH 0.56) (relative expression (Average)): 1.55
  IFN α2a-induced MARCKS gene expression in whole blood (TAQMAN), sample 175 IFN + 545 (175 IFN 2.59; 175 VEH 0.41) (relative expression (Average)): 0.55
  IFN α2a-induced RAB8B gene expression in whole blood (TAQMAN), sample 163 IFN + 545 (163 IFN 2.20; 163 VEH 0.70) (relative expression (Average)): 1.18
  IFN α2a-induced RAB8B gene expression in whole blood (TAQMAN), sample 175 IFN + 545 (175 IFN 2.63; 175 VEH 0.64) (relative expression (Average)): 1.15
  OAS1 gene expression (TAQMAN, Average) in whole blood of donor 107 with 100 IU IFNα2a + MEDI-545; same donor VEH 1.00, IFN alone 15.11 (relative expression (Average)): 3.45
  OAS1 gene expression (TAQMAN, Average) in whole blood of donor 163 with 100 IU IFNα2a + MEDI-545; same donor VEH 0.77, IFN alone 14.19 (relative expression (Average)): 3.05
  OAS1 gene expression (TAQMAN, Average) in whole blood of donor 175 with 100 IU IFNα2a + MEDI-545; same donor VEH 1.62, IFN alone 22.09 (relative expression (Average)): 4.04
  OAS3 gene expression (TAQMAN, Average) in whole blood of donor 107 with 100 IU IFNα2a + MEDI-545; same donor VEH 1.00, IFN alone 49.04 (relative expression (Average)): 7.03
  OAS3 gene expression (TAQMAN, Average) in whole blood of donor 163 with 100 IU IFNα2a + MEDI-545; same donor VEH 0.49, IFN alone 42.01 (relative expression (Average)): 14.6
  OAS3 gene expression (TAQMAN, Average) in whole blood of donor 175 with 100 IU IFNα2a + MEDI-545; same donor VEH 1.27, IFN alone 37.87 (relative expression (Average)): 3.92
  RSAD2 gene expression (TAQMAN, Average) in whole blood of donor 107 with 100 IU IFNα2a + MEDI-545; same donor VEH 1.00, IFN alone 109.64 (relative expression (Average)): 9.88
  RSAD2 gene expression (TAQMAN, Average) in whole blood of donor 163 with 100 IU IFNα2a + MEDI-545; same donor VEH 0.56, IFN alone 71.47 (relative expression (Average)): 4.39
  RSAD2 gene expression (TAQMAN, Average) in whole blood of donor 175 with 100 IU IFNα2a + MEDI-545; same donor VEH 1.88, IFN alone 126.27 (relative expression (Average)): 8.43
Human leukocyte IFN
  neutralization of overexpression of ISG15, USP18 and IFIT2 in keratinocytes stimulated with 150 I.U./mL leukocyte IFN: 70 to 100%

## R347 (antibody)
IFNα2a (human)
  HERC5 gene expression (TAQMAN, Average) in whole blood of donor 107 with 100 IU IFNα2a + R347 control Ab; same donor VEH 1.00, IFN alone 41.12 (relative expression (Average)): 55
  HERC5 gene expression (TAQMAN, Average) in whole blood of donor 163 with 100 IU IFNα2a + R347 control Ab; same donor VEH 1.05, IFN alone 75.81 (relative expression (Average)): 95.4
  HERC5 gene expression (TAQMAN, Average) in whole blood of donor 175 with 100 IU IFNα2a + R347 control Ab; same donor VEH 1.19, IFN alone 74.58 (relative expression (Average)): 98.2
  IFN α2a-induced IFIT1 gene expression in whole blood (TAQMAN), sample 107 IFN + R347 (107 IFN 80.21; 107 VEH 1.00) (relative expression (Average)): 86.4
  IFN α2a-induced IFIT1 gene expression in whole blood (TAQMAN), sample 163 IFN + R3437 (163 IFN 51.65; 163 VEH 0.92) (relative expression (Average)): 86.6
  IFN α2a-induced IFIT3 gene expression in whole blood (TAQMAN), sample 107 IFN + R347 (107 IFN 38.43; 107 VEH 1.00) (relative expression (Average)): 42.6
  IFN α2a-induced IFIT3 gene expression in whole blood (TAQMAN), sample 163 IFN + R3437 (163 IFN 25.94; 163 VEH 0.62) (relative expression (Average)): 44.8
  IFN α2a-induced IFIT3 gene expression in whole blood (TAQMAN), sample 175 IFN + R347 (175 IFN 35.02; 175 VEH 1.32) (relative expression (Average)): 29.7
  IFN α2a-induced IL6ST gene expression in whole blood (TAQMAN), sample 107 IFN + R347 (107 IFN 3.54; 107 VEH 1.00) (relative expression (Average)): 8.19
  IFN α2a-induced IL6ST gene expression in whole blood (TAQMAN), sample 163 IFN + R3437 (163 IFN 7.69; 163 VEH 2.50) (relative expression (Average)): 13.2
  IFN α2a-induced IL6ST gene expression in whole blood (TAQMAN), sample 175 IFN + R347 (175 IFN 7.62; 175 VEH 1.37) (relative expression (Average)): 23.9
  IFN α2a-induced IRF7 gene expression in whole blood (TAQMAN), sample 107 IFN + R347 (107 IFN 18.53; 107 VEH 1.00) (relative expression (Average)): 19.5
  IFN α2a-induced IRF7 gene expression in whole blood (TAQMAN), sample 163 IFN + R3437 (163 IFN 17.16; 163 VEH 0.91) (relative expression (Average)): 23.3
  IFN α2a-induced IRF7 gene expression in whole blood (TAQMAN), sample 175 IFN + R347 (175 IFN 24.65; 175 VEH 1.25) (relative expression (Average)): 26.3
  IFN α2a-induced LY6E gene expression in whole blood (TAQMAN), sample 107 IFN + R347 (107 IFN 19.09; 107 VEH 1.00) (relative expression (Average)): 12.5
  IFN α2a-induced LY6E gene expression in whole blood (TAQMAN), sample 163 IFN + R3437 (163 IFN 13.52; 163 VEH 1.02) (relative expression (Average)): 22.6
  IFN α2a-induced LY6E gene expression in whole blood (TAQMAN), sample 175 IFN + R347 (175 IFN 19.32; 175 VEH 1.61) (relative expression (Average)): 15.6
  IFN α2a-induced MARCKS gene expression in whole blood (TAQMAN), sample 107 IFN + R347 (107 FN 3.97; 107 VEH 1.00) (relative expression (Average)): 2.99
  IFN α2a-induced MARCKS gene expression in whole blood (TAQMAN), sample 163 IFN + R3437 (163 IFN 2.59; 163 VEH 0.56) (relative expression (Average)): 4.42
  IFN α2a-induced MARCKS gene expression in whole blood (TAQMAN), sample 175 IFN + R347 (175 IFN 2.59; 175 VEH 0.41) (relative expression (Average)): 3.38
  IFN α2a-induced RAB8B gene expression in whole blood (TAQMAN), sample 107 IFN + R347 (107 IFN 3.45; 107 VEH 1.0) (relative expression (Average)): 3.15
  IFN α2a-induced RAB8B gene expression in whole blood (TAQMAN), sample 163 IFN + R3437 (163 IFN 2.20; 163 VEH 0.70) (relative expression (Average)): 3.71
  IFN α2a-induced RAB8B gene expression in whole blood (TAQMAN), sample 175 IFN + R347 (175 IFN 2.63; 175 VEH 0.64) (relative expression (Average)): 2.51
  OAS1 gene expression (TAQMAN, Average) in whole blood of donor 107 with 100 IU IFNα2a + R347 control Ab; same donor VEH 1.00, IFN alone 15.11 (relative expression (Average)): 17.8
  OAS1 gene expression (TAQMAN, Average) in whole blood of donor 163 with 100 IU IFNα2a + R347 control Ab; same donor VEH 0.77, IFN alone 14.19 (relative expression (Average)): 22.4
  OAS1 gene expression (TAQMAN, Average) in whole blood of donor 175 with 100 IU IFNα2a + R347 control Ab; same donor VEH 1.62, IFN alone 22.09 (relative expression (Average)): 15.2
  OAS3 gene expression (TAQMAN, Average) in whole blood of donor 107 with 100 IU IFNα2a + R347 control Ab; same donor VEH 1.00, IFN alone 49.04 (relative expression (Average)): 76.9
  OAS3 gene expression (TAQMAN, Average) in whole blood of donor 163 with 100 IU IFNα2a + R347 control Ab; same donor VEH 0.49, IFN alone 42.01 (relative expression (Average)): 52.6
  OAS3 gene expression (TAQMAN, Average) in whole blood of donor 175 with 100 IU IFNα2a + R347 control Ab; same donor VEH 1.27, IFN alone 37.87 (relative expression (Average)): 34.9
  RSAD2 gene expression (TAQMAN, Average) in whole blood of donor 107 with 100 IU IFNα2a + R347 control Ab; same donor VEH 1.00, IFN alone 109.64 (relative expression (Average)): 107
  RSAD2 gene expression (TAQMAN, Average) in whole blood of donor 163 with 100 IU IFNα2a + R347 control Ab; same donor VEH 0.56, IFN alone 71.47 (relative expression (Average)): 115
  RSAD2 gene expression (TAQMAN, Average) in whole blood of donor 175 with 100 IU IFNα2a + R347 control Ab; same donor VEH 1.88, IFN alone 126.27 (relative expression (Average)): 91
